# Data as given in US20100255008A1.
# Biological target: Mouse soluble TWEAK (mouse) (UniProt O54907)
# Test: receptor interaction ELISA: antibody pre-incubated with mouse soluble TWEAK, binding to coated mouse Fn14:Fc
row,Binder,IC50 [ng/mL]
1,"TW205 (antibody, V domains shown) VH: QIHLQESGLGLVKPSQSLTLTCSVTGFSITTPDYSWHWIRQFPGQTLEWMGFLYYEGDTYYNPSLKSRISIARDASKNQFFLQLKSVTTEDTATYFCVRRKYSGYGNWFAYWGQGTQVTVSS VL: QPVLTQAPSASASLRASVKLTCTLSSQHSTYYIEWYQQHPDKAPRYVMYVDSDGSHIKGDGVPDRFSGSSSGARRYLSISNLQPEDEAIYHCGVYDSTAGAVFGSGTQLTVLG",5.1
2,TW212 (antibody) VL: DIVLTQSPAYLTMSPGQTTTISCKASQSVSIGPIHLMHWYQQKPGQPPRLLIYGASNPESGVPARFSGSGSGTDFTLTIHPVEADDAATYFCQQGKESPRTFGPGTKLEITRADAKPTVSIFPPSSEQLGTGSATLVCFVNNFYPKDINVKWKVDGSEKRDGVLQSVTDQDSKDSTYSLSSTLSLTKADYERHNLYTCEVTHKTSTAAIVKTLNRNEC VH: QVQLQESGPGLLKPAQSLSLTCTVTGYSIRSGYWWSWIRQQPGKGLEWMGQIYNKGNTDNNPSLKSQITMTVDTSKNQFFLRLRSVTTEDTAVYYCARVFWDDAYFDVWGQGIQVTVSSATTTAPSVYPLAPACDSTTSTTNTVTLGCLVKGYFPEPVTVSWNSGALTSGVHTFPSVLHSGLYSLSSSVTVPSSTWPSQTVTCNVAHPASSTKVDKKIVPGDGSGCKPCTCPGPEVSSVFIFPPKPKDVLTISLSPKVTCVVVDISQDDPEVQFSWFIDGKEVHTAVTQPREEQFNSTYRMVSVLPILHQDWLNGKEFKCKVNSPAFPVPIEKTISKRRGQLQVPQVYTMPPPKEQLTQSQVSLTCMIKGFYPEDIDVAWQKNGQPEQSFKNTPPVLDTDETYFLYSKLDVKKDDWEKGDTFTCSVVHEALHNHHTEKTLSQRPGK,4.6
3,"Antibody 15 (antibody, V domains shown) VH: QVQLQESGPGLVKPSETLSLTCAVSGYSIRSGYWWSWIRQPPGKGLEWIGQIYNKGNTDNNPALKSRVTISVDTSKNQFSLKLSSVTAADTAVYYCARVFWDDAYFDVWGQGTMVTVSS VL: EIVLTQSPATLSLSPGERATLSCKASQSVSIGPIHLMHWYQQKPGQAPRLLIYGASNPESGIPARFSGSGSGTDFTLTISSLEPEDFAVYYCQQGKESPRTFGQGTKLEIK",5
4,"Antibody 16 (antibody, V domains shown) VH: QVQLQESGPGLVKPSETLSLTCAVSGYSIRSGYWWSWIRQPPGKGLEWIGQIYNKGNTDNSPSLKSRVTISVDTSKNQFSLKLSSVTAADTAVYYCARVFWDDAYFDVWGQGTMVTVSS VL: EIVLTQSPATLSLSPGERATLSCKASQSVSIGPIHLMHWYQQKPGQAPRLLIYGASNPESGIPARFSGSGSGTDFTLTISSLEPEDFAVYYCQQGKESPRTFGQGTKLEIK",7
5,"Antibody 17 (antibody, V domains shown) VH: QVQLQESGPGLVKPSETLSLTCTVSGYSIRSGYWWSWIRQPPGKGLEWIGQIYNKGNTDNNPALKSRVTISVDTSKNQFSLKLSSVTAADTAVYYCARVFWDDAYFDVWGQGTMVTVSS VL: EIVLTQSPATLSLSPGERATLSCKASQSVSIGPIHLMHWYQQKPGQAPRLLIYGASNPESGIPARFSGSGSGTDFTLTISSLEPEDFAVYYCQQGKESPRTFGQGTKLEIK",6
6,"Antibody 18 (antibody, V domains shown) VH: QVQLQESGPGLVKPSETLSLTCTVSGYSIRSGYWWSWIRQPPGKGLEWIGQIYNKGNTDNSPSLKSRVTISVDTSKNQFSLKLSSVTAADTAVYYCARVFWDDAYFDVWGQGTMVTVSS VL: EIVLTQSPATLSLSPGERATLSCKASQSVSIGPIHLMHWYQQKPGQAPRLLIYGASNPESGIPARFSGSGSGTDFTLTISSLEPEDFAVYYCQQGKESPRTFGQGTKLEIK",6
7,"Antibody 19 (antibody, V domains shown) VH: QVQLQESGPGLVKPSETLSLTCAVSGYSIRSGYWWSWIRQQPGKGLEWIGQIYNKGNTDNNPALKSQVTISVDTSKNQFSLKLSSVTAADTAVYYCARVFWDDAYFDVWGQGTMVTVSS VL: EIVLTQSPATLSLSPGERATLSCKASQSVSIGPIHLMHWYQQKPGQAPRLLIYGASNPESGIPARFSGSGSGTDFTLTISSLEPEDFAVYYCQQGKESPRTFGQGTKLEIK",7
8,"Antibody 20 (antibody, V domains shown) VH: QVQLQESGPGLVKPSETLSLTCAVSGYSIRSGYWWSWIRQQPGKGLEWIGQIYNKGNTDNSPSLKSQVTISVDTSKNQFSLKLSSVTAADTAVYYCARVFWDDAYFDVWGQGTMVTVSS VL: EIVLTQSPATLSLSPGERATLSCKASQSVSIGPIHLMHWYQQKPGQAPRLLIYGASNPESGIPARFSGSGSGTDFTLTISSLEPEDFAVYYCQQGKESPRTFGQGTKLEIK",14
9,"Antibody 21 (antibody, V domains shown) VH: QVQLQESGPGLVKPSETLSLTCAVSGYSIRSGYWWSWIRQPPGKGLEWIGQIYNKGNTDNNPALKSRVTISVDTSKNQFSLKLSSVTAADTAVYYCARVFWDDAYFDVWGQGTMVTVSS VL: EIVLTQSPGTLSLSPGERATLSCKASQSVSIGPIHLMHWYQQKPGQAPRLLIYGASNPESGIPDRFSGSGSGTDFTLTISRLEPEDFAVYYCQQGKESPRTFGQGTKLEIK",5
10,"Antibody 22 (antibody, V domains shown) VH: QVQLQESGPGLVKPSETLSLTCAVSGYSIRSGYWWSWIRQPPGKGLEWIGQIYNKGNTDNSPSLKSRVTISVDTSKNQFSLKLSSVTAADTAVYYCARVFWDDAYFDVWGQGTMVTVSS VL: EIVLTQSPGTLSLSPGERATLSCKASQSVSIGPIHLMHWYQQKPGQAPRLLIYGASNPESGIPDRFSGSGSGTDFTLTISRLEPEDFAVYYCQQGKESPRTFGQGTKLEIK",5
11,"Antibody 23 (antibody, V domains shown) VH: QVQLQESGPGLVKPSETLSLTCTVSGYSIRSGYWWSWIRQPPGKGLEWIGQIYNKGNTDNNPALKSRVTISVDTSKNQFSLKLSSVTAADTAVYYCARVFWDDAYFDVWGQGTMVTVSS VL: EIVLTQSPGTLSLSPGERATLSCKASQSVSIGPIHLMHWYQQKPGQAPRLLIYGASNPESGIPDRFSGSGSGTDFTLTISRLEPEDFAVYYCQQGKESPRTFGQGTKLEIK",6
12,"Antibody 24 (antibody, V domains shown) VH: QVQLQESGPGLVKPSETLSLTCTVSGYSIRSGYWWSWIRQPPGKGLEWIGQIYNKGNTDNSPSLKSRVTISVDTSKNQFSLKLSSVTAADTAVYYCARVFWDDAYFDVWGQGTMVTVSS VL: EIVLTQSPGTLSLSPGERATLSCKASQSVSIGPIHLMHWYQQKPGQAPRLLIYGASNPESGIPDRFSGSGSGTDFTLTISRLEPEDFAVYYCQQGKESPRTFGQGTKLEIK",8
13,"Antibody 25 (antibody, V domains shown) VH: QVQLQESGPGLVKPSETLSLTCAVSGYSIRSGYWWSWIRQQPGKGLEWIGQIYNKGNTDNNPALKSQVTISVDTSKNQFSLKLSSVTAADTAVYYCARVFWDDAYFDVWGQGTMVTVSS VL: EIVLTQSPGTLSLSPGERATLSCKASQSVSIGPIHLMHWYQQKPGQAPRLLIYGASNPESGIPDRFSGSGSGTDFTLTISRLEPEDFAVYYCQQGKESPRTFGQGTKLEIK",18
14,"Antibody 26 (antibody, V domains shown) VH: QVQLQESGPGLVKPSETLSLTCAVSGYSIRSGYWWSWIRQQPGKGLEWIGQIYNKGNTDNSPSLKSQVTISVDTSKNQFSLKLSSVTAADTAVYYCARVFWDDAYFDVWGQGTMVTVSS VL: EIVLTQSPGTLSLSPGERATLSCKASQSVSIGPIHLMHWYQQKPGQAPRLLIYGASNPESGIPDRFSGSGSGTDFTLTISRLEPEDFAVYYCQQGKESPRTFGQGTKLEIK",36
15,"TW202 (antibody, V domains shown) VH: QLQLQESGLGLVKPSQSLTLTCSVTGFSITTPDYSWHWIRQLPGQTLEWMGFLYYEGDTYYNPSLKSRISIARDASKNQFFLQLKAVTTEDTATYFCARRKYSGYGNWFAYWGQGTLVTVSL VL: QPVLTQSPSASASLRASVKLTCTLSSQHSTYYIEWYQQRPDKAPKYVMYLDSDGSHIKGDGIPDRFSGSSSGAHRYLSISNLQPEDEAIYHCGVYDSTAGAVFGSGTQLTVLG",9
